{
  "source": "the DeepSol protein solubility set",
  "data": [
    {"experiment": "soluble on expression in E. coli; label from the status in PepcDB or PDB records", "values": [
      {"sequence": "MNSAPKLNTFQHLIGEHQTFLEAKRIAKQFSLSELPVLITGKIGTGKNHFAHAIHLESSRSNEPFISVNCSTHSEETLIHELFGPNGNTGVFQKAVRGTLFLDDVWRMPASVQAQLLKALDSDTEKPRMICASADRSVEHTFRQDLFYRLNILTLTLPELSERKSDIPLLTQHFLSNSGQQLLIDPSVFPVLEKHAFEGNVRELKNAADYMAAVSSGGTIQPYDLPPYIRGTIDGKTSKKKAKLLTLMEKAEFLFILETIKVLNEKGEPASRRIISEHSKNTQTSLTPQQVRSRLDYLEKKDYVTKSRGRAGTKITFEGLSFIETLKNQMILEHHHHHH", "soluble on expression in E. coli": "soluble"},
      {"sequence": "MNSITCPKCGTECDKLFDSVCRDCFFETFKLIDLPLVLHVKICSSCGAYFHRSRWENIGNLEEVVLKAVENALFIHDEAGDVELYLEPKEITPYIYMVRAEVDAIVRGEPVHAEAATEVRVQRIACDMCSRESGGYFEAIIQIRAAGRFPTEEEKRRCSAIAREAMESMKKKGDRLAFISDYQEQKEGIDLYMGSMNASRQVCRMIISELGGSFAESPTLVGMKDGKNLYRITFAMRLPEFRPGDVIRFRGRIIQIRSSGKKVNGISLEDGSRFLSTPEELKGAEKIANIGDAVLTVLVSIEENAILVLDPETYETVAIKKPMFFNAEAGSEIPVLKTEYGIFALAHTDIPQEKLEHHHHHH", "soluble on expression in E. coli": "soluble"},
      {"sequence": "MNSLDSQITALYTLAHELLYLGSDGSPIYSDHFSRLNGDVLSRANTLYPHHGSTDEEEARLCLSLLMGYNATIYNNGDKEVRIQQILNRCWEVLDRLPASLLKVRLLTYCYG", "soluble on expression in E. coli": "not soluble"},
      {"sequence": "MNSLSLPHRYPFLFIDGVTDSEPGKHAAAYKLISENDWFITDTQTEMPFSLVIEGLRKPRLLQELQMRTAWDYCLRKRKSWEKLCLVTGLILRLKSRAIGAGLCSDMPRHQLESSLLLKLKSASILKNEKNPSQHFVRGSILCRNPVRFESYLFAGVCVFHHSYFPSALHLEHHHHHH", "soluble on expression in E. coli": "not soluble"},
      {"sequence": "MNSLSTEQLGIGYGDRVIVEDLNISIPKGKITTLIGPNGCGKSTILKTMSRIMRSHAGAVYLNGKAIHKMSTKDIAKDMAILPQTPEAPSGLTVHELVSYGRFPHQSGFGRLNDEDRRIIKWALEETGMAEYAERPIEALSGGQRQRVWIAMALAQGTELLLLDEPTTYLDLAHQLEILQLLDRLNKEQGRTILMVIHDLNHAARFSHYMIALKKGTVIKEGTALEVMTPDILKQVFQIDAEIVTDPRTNKPVCLTYDLIKNEKELVTV", "soluble on expression in E. coli": "not soluble"},
      {"sequence": "MNSQQEWEHAYSLAERMYNKQAPTKREELNPTERVICSRFETIFDYDPFKDEYTFRDQALLFSTPVQPKCRTVAEADLHELKENTAKLNIPMPSYINICPIYALLPFTVLVFNNSQHAHKSLSDDMERAAATFRNPHESEIVPGAMYIFKQKHGKAYRCIILSEDGDMNIPDAERKYLVAFIDNVQIVSVKQKTLFVSDQFSIKDYPCALHCARIVGISAIRKSYVSGMNQFILNFYDAKEKRKAGMFAFIYKLDKEEKKLVIDYPSLLGTPKTTSTEIRTAVGHQIVASKDPVSLTFEQLNKKEVPEFKYLNSTDDDSDVELDLIEHDTKSVNPVASSHPTSSSMDDCPYGRASIARAKDYQLRLPPHSQKGLSSSSLLGSSYPVSNSIKNDITKQSESNRADATNISFSSFESTKSDISPQNNQNVEETSTPTVPPNSTIQENEEDEIMSPASIIRAPSRLAGSLNKVSIERPNTPLPTSSKNSEHNMSEISTYEASSISSHHLVPQSPSVPKTNYTVPVVQRPLTAPEKFRDPFGGPGSSDILNTKMLCSEKNIVPSNKFGRQISPGKDDKNENYQYSRMETKPQTLFAPVLDENQRQSSSSNMMCQIPDISSVAQVGFL", "soluble on expression in E. coli": "not soluble"},
      {"sequence": "MNTFTACVERGENWWVAQLVEDPGVIVQARRLDQIQEEIRDALALFPKLTDSPETASVHLDLVGEIEQKAQATRDQLAAIRECEAHELANMSQHARRLQAAGVLRDSMQIASGSQAARS", "soluble on expression in E. coli": "not soluble"},
      {"sequence": "MNTIVVAQLQRQFQDYIVSLYQQGFLDNQFSELRKLQDEGTPDFVAEVVSLFFDDCSKLINTMSISLERPDNVDFKQVDSGVHQLKGSSSSLCFVLSVGARRVKNVCISFKECCDVQNREGYSSNSHTNCDNDIWHRCLRCLQQVDYEYKMLKTKLQDLFNVSFKLCENLLVLLLEKQILQAGGTIPQVDIN", "soluble on expression in E. coli": "soluble"},
      {"sequence": "MNTKYNKEFLLYLAGFVDGDGSIIAQIEPNQSYKFKHRLKLTFKVTQKTQRRWFLDKLVDEIGVGYVSDSGSVSNYILSEIKPLHNFLTQLQPFLKLKQKQANLVLKIIEQLPSAKESPDKFLEVCTWVDQIAALNDSKTRKTTSETVRAVLD", "soluble on expression in E. coli": "soluble"}
    ]}
  ]
}
